The values below come from patent US20220112288A1 (published 2022).

Where only a bound is given, the exact number is not on record here.

First the molecules themselves.
B1: 75110_05L07A (antibody, V domains shown)
VH: EVQLVESGGGLVQPGGSLRLSCAASGFTFSSYWMSWVRQAPGKGLEWVANINQDGSDKYYVDSVKGRFTISRDNVKNSLYLQINSLRAEDTAVYYCAREGGQWLTLDYWGQGTLVTVSS
VL: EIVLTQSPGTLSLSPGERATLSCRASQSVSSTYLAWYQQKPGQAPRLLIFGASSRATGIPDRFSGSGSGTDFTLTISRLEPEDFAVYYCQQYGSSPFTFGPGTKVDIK
notes: Tested as antibody purified from AlivaMab Mouse hybridoma supernatant (human variable domains, kappa; mouse Fc, captured on anti-mouse IgG Fc sensors); also called ADS75110 purified AMM Ab
B2: 75110_07B16A (antibody, V domains shown)
VH: QVQLQQWGAGLLKPSETLSLTCAVYGGSFSGYYWSWIRQSPGKGLEWIGEINQSGSTNYNPSLKSRVTISVDTSKDQFSLKLSSVTAADTAVYYCARVINWFDSWGQGSLVTVSS
VL: DIQMTQSPSSVSASVGDRVTITCRASQGISSWLAWYQQKPGKAPKLLIYDASSFQSGVPSRFSGSGSGTDFTLTISSLQTDDFATYYCQQANSFPYTFGQGTKLEIK
notes: as for B1
B3: 75110_11D03A (antibody, V domains shown)
VH: EVQLVESGGGLVQPGGSLRLSCAASGFTFSSYWMSWVRQAPGKGLEWVANINQDGNEKYYVDSVKGRFTISRDNAKNSLFLQMNSLRAEDTAVYYCAREGGQWLALDYWGQGALVTVSS
VL: DIQMTQSPSSVSASVGDRVTITCRASQGISSWLAWYQQKPGKAPKFLISGASSLQSGVPSRFSGSGSGTDFTLTISSLQPEDFATYYCQQANSFPWTFGQGTKVEIK
notes: as for B1
B4: 75110_06D16A (antibody, V domains shown)
VH: QVQLQQWGAGLLKPSETLSLTCAVYGGSFSGYYWSWIRQPPGKGLEWIGEINHSGSTNYNPSLKSRVTISVVTSKNQFSLKLSSVTAADTAVYYCARVLNWFDPWGQGTLVTVSS
VL: DIQMTQSPSSVSASVGDRVTITCRASQDIADWLAWYQQKPGKAPKLLIYAASSFQSGVPSRFSGSGSGTDFTLTISSLQPEDFATYFCQQANSFPYTFGQGTKLEIK
notes: as for B1
B5: 75110_07E04A (antibody, V domains shown)
VH: EVQLVESGGGLVQPGGSLRLSCAVSGFTFSSYDMHWVRQATGKGLEWVSTIGTAGDTYYPGSVKGRFTISRENAKKFLYLQMNSLRAGDTAVYYCARGGYYYYGMDVWGQGTTVTVSS
VL: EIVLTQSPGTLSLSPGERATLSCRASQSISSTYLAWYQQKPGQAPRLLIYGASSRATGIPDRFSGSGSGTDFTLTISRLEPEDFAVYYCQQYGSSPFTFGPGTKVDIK
notes: as for B1
B6: 75110_13C07A (antibody, V domains shown)
VH: EVQLVESGGVLVQPGGSLRLSCAASGFTFSNYDMHWVRQATGKGLEWVSTIGTAGDTYYPGSVKGRFTLSRENAKNSLYLQMHSLRAGDTAVYYCARGAYGYYGMDVWGQGTTVTVSS
VL: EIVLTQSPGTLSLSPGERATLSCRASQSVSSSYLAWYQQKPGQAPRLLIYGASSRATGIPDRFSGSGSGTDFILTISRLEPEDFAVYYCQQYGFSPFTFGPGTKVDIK
notes: as for B1
B7: 75110_10N21A (antibody, V domains shown)
VH: EVQLVESGGGLVQPGGSLRLSCAASGFTFSSYDMHWVRQVTGKGLEWVSTIGTAGDTYYPGSVKGRFTISRENAKNSLYLQMNSLRAGDTAVYYCARGGYYYYGMDVWGQGTTVTVSS
VL: EIVLTQSPGTLSLSPGERATLSCRASQSFISSYLAWYQQKPGQAPRLLIYGASSRATGIPDRFSGSGSGTDFTLTISRLDPEDFAVYYCQQSGNSPFTFGPGTKVDVK
notes: as for B1
B8: 75110_06K03A (antibody, V domains shown)
VH: QVQLQESGPGLVKPSETLSLTCTVSGGSISTYYWSWIRQPAGKGLEWIGRINTSGSTTYNPSLKSRVTMSVDTSKNQFSLKLSSVTAADTAVYYCARELERYYYYGMDVWGQGTTVTVSS
VL: DIQMTQSPSSLSASVGDRVTITCQASQDISNYLNWYQQKPGKAPKLLIYYASILETGVPSRFSGSGSGTDFTFTISSLQPEDIATYYCQQYDSLPLTFGGGTKVEIK
notes: as for B1
B9: 75110_06C16A (antibody, V domains shown)
VH: QVQLQESGPGLVTPSETLSLSCTVSGGSISDYYWSWIRQPGGKGLEWIGRIYSSGSTNYNPSLKSRVTMSVDTSKNQFSLKLSSVTAADTAVYFCARDREDYYYYGMDVWGQGTTVTVSS
VL: DIQMTQSPSSLSASVGDRVTITCQASHDISNYLNWYQQKPGKAPKLLIYAASNLETGVPSRFSGSGSGTDFSFTISSLQPEDIATYYCQQYDHLPLTFGGGTKVEIK
notes: as for B1
B10: 75110_08D24A (antibody, V domains shown)
VH: QVQLQESGPGLVKPSETLSLTCTVSGGSISGFYWSWIRQPAGKGLEWIGRIYTSENTNYNPSLKSRVTMSVDTSKNQFSLKLSSVTAADTAVYYCARDREGYYYYGMDVWGQGTTVTVSS
VL: DIQMTQSPSSLSASVGDRVTITCQASQDISNYLNWYQQKPGKAPKLLIYAASNLETGVPSRFSGSGSGTDFTFTISSLQPEDIATYYCQQYDSLPITFGQGTRLEIK
notes: as for B1
B11: 75110_06G04A (antibody, V domains shown)
VH: QVQLLESGPGLVKPSETLSLTCTVSGGSISSYYWSWIRQPAGKGLEWIGRIYISGSTNYNPSLKSRVTMSIDTSENQFSLNLSSVTAADTAVYYCARELERPYYYGMDVWGQGTTVTVSS
VL: DIQMTQSPSSLSASVGDRVTITCQASQDISNYLNWYQQKPGKAPKLLIYNASTLETGVPSRFSGSGSGTDFTFTISSLQPEDIATYYCQQYDNLPLTFGGGTKVEFK
notes: as for B1
B12: 75110_06E14A (antibody, V domains shown)
VH: QVQLQESGPGLVKPSETLSLTCTVSGGSISNYFWSWIRQPAGKGLEWIGRIYSSGNTNYNPSLKSRVTMSVDTSKNQFSLKLSSVTAADTAVYYCARDREDYYYYGMDVWGQGTTVTVSS
VL: DIQMTQSPSSLSASVGDRVTITCQASQDISNYLNWYQQKPGKAPKLLIYGASILETGVPSRFTGSGSGTDFTFTISSLQPEDIATYYCQQYDSLPITFGQGTRLEIK
notes: as for B1
B13: 75110_08M20A (antibody, V domains shown)
VH: QVQLQESDPGLVKPSETLSLTCTVSGGSISSYYWSWIRQPAGKGLEWIGRIYASGSTNYNPSLKSRVTMSVDTSKNQFSLKLSSVTAADTAVYYCARDREGYYYYGMDVWGQGTTVTVSS
VL: DIQMTQSPSSLSASVGDRVTITCQASQDISKYLNWYQQKPGKAPNLLIYAASNLETGVPSRFSGSGSGTDFTFTISSLQPEDIAAYYCQQYDSLPITFGQGTRLEIK
notes: as for B1
B14: 75110_05E05A (antibody, V domains shown)
VH: QVQLQESGPGLVKPSETLSLTCTVSGGSIGSYYWSWIRQPAGKGLEWIGRIYTSGSTNYNPSLKSRVTMSFDTSKNQFSLKLNSVTAADTAVYYCATDGGVGDSLDYWGQGTLVTVSS
VL: DIVMTQTPLSLPVTPGEPASISCRSSQSLLDSDDGNTYLDWYLQKPGQSPQLLIYTLSYRASGVPDRFSGSGSGTDFTLKISRVEAEDVGVYYCMQHIEFPFTFGPGTKVDIK
notes: Tested as antibody purified from AlivaMab Mouse hybridoma supernatant (captured by anti-mouse IgG Fc)
B15: 75110_05B13A (antibody, V domains shown)
VH: QVLLEQWGAGLLKPSETLSLTCAVYGGSFSGYYWTWIRQPPGKGLEWIGEINHRGSTNYNPSLKSRVTISIDTSKNQFSLKVKSVTAADTAMYYCTRPDSNWFDPWGQGTLVTVSS
VL: DIQMTQSPSSVSASVGDRVTITCRASQDISNWLAWYQQKPGKAPKLLIFAASSLQSGVPSRFSGSGSGTDFTLTISSLQPEDFATYYCQQANSFPLTFGGGTKVEIK
notes: as for B14
B16: 75110_05G15A (antibody, V domains shown)
VH: QVQLQESGPGLVKPSQTLSLTCTVSGGSISSGGYFWSWIRQHPGKGLEWIGCIYYSGSTYYIPSLKSRVTISVDTSKNQFSLKLRSVTAADTAVYYCARDGYDYWYFDLWGRGTLVTVSS
VL: not shown
B17: 75110_05E13A (antibody, V domains shown)
VH: EVQLVESGGDLVKPGGSLRLSCAASGFSFSNAWMSWVRQAPGKGLEWVGRVESKTDGGTTDYAAPVKDRFTISRDDSKYTLYLQMNSLKTEDSAVYYCTIGGGFGLELYGFFDYWGQGTLVTVSS
VL: DIQMTQSPSTLSASVGDRVTITCRASQSISSWLAWYQQKPGKAPMLLIYKASSLESGVPSRFSGSGSGTEFTLTISSLQPDDFATYYCLQYNSYYTFGQGTKLEIK
notes: as for B14
B18: 75110_05A11A (antibody, V domains shown)
VH: EVQLVESGGGLVKPGGSLTLSCAASGFTFSNTWMSWVRQAPGKGLEWVGRIKSKIDGGTTDYAAPVKGRFTISRDDSKNTLYLQMNSLKTEDTAVYYCTTSGTYSSGWGLFDYWGQGTLVTVSS
VL: DIQMTQSPSSLSASVGDRVTITCQASQDISNYLNWYQQKPGKAPKLLIYDTSNLEAGVPSRFSGSGSGTHFTLTISSLQPEDIATYYCQQYDNLPFTFGGGTRVEIK
notes: as for B14

T1 sequence (P16003 26-390 limits assumed): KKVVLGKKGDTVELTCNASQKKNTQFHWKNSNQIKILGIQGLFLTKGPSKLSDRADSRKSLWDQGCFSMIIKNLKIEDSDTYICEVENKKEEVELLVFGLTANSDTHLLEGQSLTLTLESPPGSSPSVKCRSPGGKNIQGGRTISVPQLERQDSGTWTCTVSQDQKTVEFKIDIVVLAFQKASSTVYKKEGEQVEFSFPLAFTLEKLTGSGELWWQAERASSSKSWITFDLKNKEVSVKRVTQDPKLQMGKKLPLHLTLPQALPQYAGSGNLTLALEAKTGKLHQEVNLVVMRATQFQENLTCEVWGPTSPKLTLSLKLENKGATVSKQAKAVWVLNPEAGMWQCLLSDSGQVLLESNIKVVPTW

The first test has as its target T1, Rhesus macaque CD4-HIS (Acro Biosystems, Cat. CD4-C52H7) (rhesus macaque, UniProt P16003 26-390).
T1 construct: Bought reagent; also called Rhesus CD4; rhesus CD4-HIS; not shown: His tag
The test can be described thus: BLI (Octet Red384); Ab on anti-mouse Fc (AMC) sensor; rhesus CD4-HIS 100/50/25 nM; global 1:1 fit.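 Further: antibodies loaded at 10 µg/mL, an unrelated mouse-derived antibody served as internal reference, curves fit over association and dissociation phases.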
As for B1, the Kd came out at 7.6 nM, the Response amounted to 0.31, the koff was determined as 0.0011 s⁻¹ and the kon came to 150000 M⁻¹ s⁻¹.
The corresponding values for B2 are 13 nM, 0.17, 0.0033 s⁻¹ and 250000 M⁻¹ s⁻¹.
On the same counts, the results for B3 are 3.5 nM, 0.11, 0.0018 s⁻¹ and 530000 M⁻¹ s⁻¹.
As to B4, the Kd is 240 nM, the Response is 0.09, the koff stood at 0.022 s⁻¹ and the on-rate constant (kon) is 91000 M⁻¹ s⁻¹.
The corresponding values for B5 are 2.6 nM, 0.02, 0.00042 s⁻¹ and 160000 M⁻¹ s⁻¹.
The corresponding values for B6 are 3.9 nM, 0.05, 0.00085 s⁻¹ and 220000 M⁻¹ s⁻¹.
On the same counts, the results for B7 are 8.2 nM, 0.07, 0.001 s⁻¹ and 130000 M⁻¹ s⁻¹.
Molecule B8 returned a dissociation constant Kd of 7.8 nM, a Response of 0.13, a dissociation rate constant (koff) of 0.00035 s⁻¹ and an on-rate constant (kon) of 45000 M⁻¹ s⁻¹.
As to B9, the Kd is 27 nM, the Response is 0.15, the dissociation rate constant (koff) stood at 0.002 s⁻¹ and the kon amounted to 73000 M⁻¹ s⁻¹.
The corresponding values for B10 are 53 nM, 0.05, 0.0017 s⁻¹ and 32000 M⁻¹ s⁻¹.
The corresponding values for B11 are 2.1 nM, 0.05, 0.0011 s⁻¹ and 510000 M⁻¹ s⁻¹.
In turn, B12 came in with a Kd of 230 nM, a Response of 0.1, a koff of 0.00069 s⁻¹ and a kon of 3000 M⁻¹ s⁻¹.
Regarding B13, the Kd worked out at 17 nM, the Response worked out at 0.17, the koff turned out to be 0.0022 s⁻¹ and the on-rate (kon) stood at 130000 M⁻¹ s⁻¹.

A further test has as its target T2, Recombinant human CD4 (R&D Systems, Cat. 10327-CD) (human, UniProt P01730 26-390, limits assumed).
T2 construct: Soluble analyte in the Octet assay
In words: BLI Octet, mAb on anti-mouse Fc sensor, CD4 100/50/25 nM, 1:1 global fit.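 Further: antibodies loaded at 10 µg/mL, an unrelated mouse-derived antibody served as internal reference control, association and dissociation phases fitted after Savitzky-Golay smoothing.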
Turning to B14, the Kd is less than 0.001 nM, the Response worked out at 0.18, the off-rate (koff) was less than 1e-07 s⁻¹ and the kon is 34000 M⁻¹ s⁻¹.
On the same counts, the results for B15 are 5.4 nM, 0.28, 0.00058 s⁻¹ and 110000 M⁻¹ s⁻¹.
On the same counts, the results for B16 are 13 nM, 0.09, 0.0022 s⁻¹ and 170000 M⁻¹ s⁻¹.
On the same counts, the results for B17 are 2.2 nM, 0.37, 0.00022 s⁻¹ and 100000 M⁻¹ s⁻¹.
For B18, the Kd was 18 nM, the Response is 0.27, the dissociation rate constant (koff) was 0.0018 s⁻¹ and the association rate constant (kon) is 97000 M⁻¹ s⁻¹.
